Where “and” joins values, the source holds several entries; their conditions need not be identical. Equal entries are not always repeated. Where two headings read alike, the source gives them in different places. Values belong to the molecule of their own block, whether it stands above or below them.
B1: Bacillus subtilis clamp-loader τ subunit (natural protein, UniProt P09122 1-563, looked up)
chain: MSYQALYRVFRPQRFEDVVGQEHITKTLQNALLQKKFSHAYLFSGPRGTGKTSAAKIFAKAVNCEHAPVDEPCNECAACKGITNGSISDVIEIDAASNNGVDEIRDIRDKVKFAPSAVTYKVYIIDEVHMLSIGAFNALLKTLEEPPEHCIFILATTEPHKIPLTIISRCQRFDFKRITSQAIVGRMNKIVDAEQLQVEEGSLEIIASAADGGMRDALSLLDQAISFSGDILKVEDALLITGAVSQLYIGKLAKSLHDKNVSDALETLNELLQQGKDPAKLIEDMIFYFRDMLLYKTAPGLEGVLEKVKVDETFRELSEQIPAQALYEMIDILNKSHQEMKWTNHPRIFFEVAVVKICQTSHQSAADLPEVDMLMKKIQQLEQEVERLKTTGIKAAAESPKKEAPRVPKGGKSNYKAPVGRIHEILKEATRPDLDLLRNSWGKLLAHLKQQNKVSHAALLNDSEPVAAGSAAFVLKFKYEIHCKMVAEDNNGVRTNLEQILESMLGKRMDLIGVPEAQWGKIREEFLEDHQQENEGSNEPAEEDPLIAEAKKLVGADLIEIKD

Tests used:
Assay in all cases: native MS
[1] = target: Bacillus subtilis clamp-loader δ subunit (yqeN) (Bacillus subtilis) (UniProt P54459)
[2] = target: the molecule itself
[3] = target: the molecule itself; remark: listed apart in the source
[4] = target: T1, Bacillus stearothermophilus DnaB helicase (Bacillus stearothermophilus, UniProt Q9X4C9 1-454)
T1 sequence (looked up): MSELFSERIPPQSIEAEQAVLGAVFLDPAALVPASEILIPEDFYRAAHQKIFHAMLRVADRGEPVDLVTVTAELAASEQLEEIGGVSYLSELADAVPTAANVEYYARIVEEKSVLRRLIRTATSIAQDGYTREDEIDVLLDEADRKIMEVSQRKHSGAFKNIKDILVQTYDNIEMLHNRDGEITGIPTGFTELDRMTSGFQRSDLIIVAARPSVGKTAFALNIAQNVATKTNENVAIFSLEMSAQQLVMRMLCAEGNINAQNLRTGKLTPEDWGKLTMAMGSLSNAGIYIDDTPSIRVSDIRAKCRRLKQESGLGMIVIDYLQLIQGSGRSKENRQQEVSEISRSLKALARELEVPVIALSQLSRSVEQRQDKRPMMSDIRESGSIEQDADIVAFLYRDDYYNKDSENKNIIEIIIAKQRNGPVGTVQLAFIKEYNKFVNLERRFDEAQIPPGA

[5] = target: B1
[6] = target: B1; remark: listed apart in the source
[7] = target: B1; remark: listed apart in the source
[8] = target: the molecule itself; remark: listed apart in the source

stoichiometry N (subunits in the oligomer) [1]: 2
Molecule: Bacillus subtilis clamp-loader δ subunit (yqeN) (from UniProt P54459 1-347) (natural protein)

Molecule: B1
stoichiometry N [2]: 3 subunits in the oligomer and 2 subunits in the oligomer and 5 subunits in the oligomer
stoichiometry N [3]: 4 subunits in the oligomer
stoichiometry N [4]: 3 τ per DnaB hexamer

stoichiometry N [5]: 2 τ per δ
stoichiometry N [6]: 3 τ per δ
B2: Bacillus subtilis clamp-loader δ subunit (yqeN) (natural protein, UniProt P54459 1-347, looked up)
chain: MVFDVWKSLKKGEVHPVYCLYGKETYLLQETVSRIRQTVVDQETKDFNLSVFDLEEDPLDQAIADAETFPFMGERRLVIVKNPYFLTGEKKKEKIEHNVSALESYIQSPAPYTVFVLLAPYEKLDERKKLTKALKKHAFMMEAKELNAKETTDFTVNLAKTEQKTIGTEAAEHLVLLVNGHLSSIFQEIQKLCTFIGDREEITLDDVKMLVARSLEQNIFELINKIVNRKRTESLQIFYDLLKQNEEPIKIMALISNQFRLILQTKYFAEQGYGQKQIASNLKVHPFRVKLAMDQARLFSEEELRLIIEQLAVMDYEMKTGKKDKQLLLELFLLQLLKRNEKNDPHY

stoichiometry N [7]: 3 τ per δ′ and 2 τ per δ′
B3: Bacillus subtilis clamp-loader δ′ subunit (holB) (natural protein, UniProt P37540 1-329, looked up)
chain: MAISWKEMNELQPRVMKLLYNSIEKDRLSHAYLFEGKKGTGKLDAALLLAKSFFCLEGGAEPCESCRNCKRIESGNHPDLHLVQPDGLSIKKAQIQALQEEFSKTGLESHKKLYIISHADQMTANAANSLLKFLEEPNKDTMAVLITEQPQRLLDTIISRCQTLPFQPLQPKAIEDRLIEQDVSPHMARLLANMTNNVAEAVELSRNDEFAESRAKVIKLYEVLHQRKGHAFFFIQDQWMPFFKEKTHQEMGLDMLLLIYRDVLSIQIGNEDKLIYQDLFQSIKQHALQSTQQSVTNQILAVLEAKKRLHSNVNVQGLMEHLVLMLQEG
stoichiometry N [8]: 2 subunits in the oligomer
